Reference: the DeepSol protein solubility set

Test: soluble on expression in E. coli; label from the status in PepcDB or PDB records

Soluble on expression in E. coli, not soluble:
MGSDKIHHHHHHMGDLTADVLVIGGGTAGFGAAVAAGRLGLDVVLLEAGTKVGGVMAFCPGMPWGAAYPQDESIGGLMQELTDRLMGMDPPMAEKRPCTLENFGPEIQYDHDAATTMMFEMLEEAGVRVFLGAVAFAPVMEGNRIAAVEFFDRRCPQRIAAKIVIDCSGDGDISAKAGVPFTLGDGQGNMMAVTLSFFMEGADWDRVFAENDPYFRRYAAKGIAEGRLHPHLAQLYLMKGFHPGTVFCNSVAIRGVDGTDPADVTRATQEGRRRCLQLAQFLRADVPGFEAAHMSQLGPTVGVRETRKLEGMYKVTGADLAAGTKFADGIVACDNPIDDVMRTSDQMTHDAMVERGGYYTIPFRSLLPKAVANLMFAGRILSADLVAFASVRGMPQCMAMGQATGTAAHLAIRDGAPVQQVDRAELVKLLSEQGVSRLLS
NKDWNVYASANFNYNRQEITKLFFGLNKYMLPNTGTIWEIGYPNSFYMAEYAGIDKKTGKQLWYVPGQVDADGNKVTTSQYSADLETRIDKSVTPPITGGFSLGASWKGLSLDADFAYIVGKWMINNDRYFTENGGGLMQLNKDKMLLNAWTEDNKETDVPKLGQSPQFDTHLLENASFLRLKNLKLTYVLPNSLFAGQNVIGGARVYLMARNLLTVTKYKGFDPEAGGNVGKNQYPNSKQYVAGIQLSF
MAHHHHHHMSQLSASPREEPVGIPELFLQYLKAKDLKDQLAIVRAHPVLFTDDVVAALKDARAQMNETFVEVKETCRVIDAVSGSLQYTGTSVQLQQTVAKELLDEDAILKKFATSLAGLLRARETAGPAAPSTISSLATASRVSSSLGAGKSHSPGAWFTQPSLVFSVLTFLSAEEIFITAENVCRAWQTWLFLPDMSRFFWVGCVQREFPEQLQVLLQTAGDDLYQSDWRSLAMLCVTEGEQAAEAEEAEEAGDGGAVRGVVPFL
MGSDKIHHHHHHMGEIMKFYDREKELNYLKTYCQLEPNSILFVYGPKSSGKSTVMRRVIKELENSNIVFFYYNLRKYATPTRDEFLRVFFEKSDKKYLLNKLELNLGVCKFGIEENFDFNNLCLNDVFAKINESINAVVEEGKKPVLIIDELQKLKNIYFNGGKSLLNELFNLFVSLTKMEHLCHVICLTSDTLFIDEIYRNSTLKNASEYYLIDWLRKGTIRNILKEEGFSEEEINYALDYLSLPYEISQLINNKKLGLSVEQTIKQWINVEKDGLKYLIDTTDLDEEGLYNVLSKFKDKIKISYDKEVKKEEMKYLKFLIENEILFYDVINGIIKPTSIIEWHAIKEIINAMQ
MSAESGVAALLRLMAWLSPAFPVGGFSYSGGLEKAVEDGRVCDAAGLGGWVETLLRHGSLWNDAVFLAHAWRSSQDTTALSETANLGRALAGSAERYRETVLLGDAFIAAASAWPHAVLELLPKEAPYPVAIGAVAAGHGVPLRETLAAFLHAGVSQIVSAGIRLGVAGQKDGVAILAASEAVIEEIAARAALSTLDDLGSATVIADTAAMRHETQGTRLFRSLEHHHHHH
MTKVTHLPADDRSCGWYHLSPPRRPKPAHYGRSAARWVVVGAGFTGLAAARQLALHFPDEEIVLVEAQEVGFGTAGRNAGFAIDLPHDIGADDYIGDIATARIGLKLNLAGQSLLREQVQRHAIDCQMKACGKYQAAVEARGVAVLDAYRRGLDRLGQAYEVIEADDLPGNIGTAFYRKALFTPGTLLVQPSALVKGLADSLPGNVSLYEHTPITAVEYGDRTLLSHPHGSILADRLVLANNAFGMSFGFLQGRMLPIFTYASLTRPLDAEEQARLGGRPYWGLIPANPYGTTVRRTPDNRLLIRNSFSFNPDGRSAGKYLERFAVRHRASFRQRFPMLPEVGFDYTWGGSLALSRNHMGHFGELAPNVYGALCCNGLGVTRGTVTGKLLADWLAGERNELIDFLLRAPGPSGNPPEPLLSLGVNLNLRWGQYRAGRESLEHHHHHH
MGSDKIHHHHHHMTTDNAKAQLTSSSGGNIIVVSNRLPVTITKNSSTGQYEYAMSSGGLVTALEGLKKTYTFKWFGWPGLEIPDDEKDQVRKDLLEKFNAVPIFLSDEIADLHYNGFSNSILWPLFHYHPGEINFDENAWLAYNEANQTFTNEIAKTMNHNDLIWVHDYHLMLVPEMLRVKIHEKQLQNVKVGWFLHTPFPSSEIYRILPVRQEILKGVLSCDLVGFHTYDYARHFLSSVQRVLNVNTLPNGVEYQGRFVNVGAFPIGIDVDKFTDGLKKESVQKRIQQLKETFKGCKIIVGVDRLDYIKGVPQKLHAMEVFLNEHPEWRGKVVLVQVAVPSRGDVEEYQYLRSVVNELVGRINGQFGTVEFVPIHFMHKSIPFEELISLYAVSDVCLVSSTRDGMNLVSYEYIACQEEKKGSLILSEFTGAAQSLNGAIIVNPWNTDDLSDAINEALTLPDVKKEVNWEKLYKYISKYTSAFWGENFVHELYSTSSSSTSSSATKN
MKGILGFEYGIVQAPLGPDISGPELVAAVANAGGIGLLRCPDWECPDYLRELIRKTKTLTEKPFGIGVVLAFPHDLNIKTILEEKVAVLQLYWGDCSQELVDDAHFAGVKVIPQVGNVEEARKAVAVGVDAIIVQGREAGGHVIGKDGLFSLLPRVVDLVGERDIPVIAAGGIVDGRGYVAALSLGAQGVCLGTRFVATHESYAHPIYKRKLIEYEKTEYTDVFGRARWPGAPQRVLETPFFDDWRSLPAHENEVNQPIIGRSTIHGVEKEIRRFSGTVPNMTTTGDLESMAMYAGQSVGLIKEILPAGEVVKSLVEEAQALILQKFNNATTT
MGQSLPLHLLKYPSKFSINIYAAPVSDAREMALGSKDIVFVGSRSAGKVYAVIPDKKNSHGTRVLTIASGLNMPNGVAFHKGALYVAEIGRILRFDNIESNLNNPPEPVVVTTKLPKEKAHGWRFISFGPDDKLYIGIGAPCNVCLMEDPRYATIMRMNTYGQDLEIYARGIRNTVGFDWDPLHHNLWFTDNGRDWLGDNLPPDELNVAPRKGMDFGFPYCYGKSTVDPVYGKIHSCSEFTPAVFEFPAHVAPLGMSFYTGKLFPSNYWGQIFISEHGSWNRSHKIGYQVTTVKIKNNHVTEVKPFISGWLQGEKAWGRPVDTLVMPDGSLLISDDYANVIYRVSYQLEHHHHHH
MKRLRSKMTTEELAECLGVARQTVNRWIREQHWKTEKFPGVKGGRARLIHIDASVREFILNIPAFRKLPAFYQAEEAFAEYANAAHSHAYRQIIDAVENMSAQEQEKLALFLSREGIRGFLTRLGINEAD
MGSDKIHHHHHHMINQVYQLVAPRQFDVTYNNVDIYGNHVIVRPLYLSICAADQRYYTGRRDENVLRKKLPMSLVHEAVGEVVFDSKGVFEKGTKVVMVPNTPTEQHHIIAENYLASSYFRSSGYDGFMQDYVVMAHDRIVPLPNDIDLSTISYTELVSVSYHAIQRFERKSIPLKNSFGIWGDGNLGYITAILLRKLYPEAKIYVFGKTDYKLSHFSFVDDIFTVNQIPDDLKIDHAFECVGGKGSQVALQQIVEHISPEGSIALLGVSELPVEVNTRLVLEKGLTLIGSSRSGSKDFEQVVDLYRKYPDIVEKLALLKGHEINVCTMQDIVQAFEMDLSTSWGKTVLKWTI
MGSDKIHHHHHHMWIRTHYFMAKSIHSYIKEKYKVSLQLDQLQYGSIKPDLLPKYWEGSHYYESCSGTWLAEVAQLLGEQKKRSIRNFSDKLGVILHFTADFFCSAHNLPNLRENMWEHLLYELKLDVAFRHFESFRGIQCLNYDDPYDLLTCCRQDYLSGQPSLERDIHYIYAASLSITDLLVTQALLPVAKPLMLLKDLPESS

Soluble on expression in E. coli, soluble:
MSLGVTVSKNEAQRLENLTRDALLSTRRLSLIVDLDQTIIHTTVDPTVAEWMDEIHREEMKDAQEKANVPTEEVKGKGEETTTPPGSPGPGALGITVESPKEKNPNAEALRDVAKFQIADDLPPGYVKLKTKTTKGQNPPESEGRWYFTKPRPGLQRFLDEMCQLYEMHVYTMGTRTYADAIVKVIDPDGKIFGGRILSRDESGSFSSKNLKRLFPTDTSMVVVIDDRSDVWGDCPNLVKVVPYDFFLGIGDINSSFLPTNKSTEGHHHHHH
MRVKIRRELLEYLLELAKSFYPREVAGFLRMKDGVFEEVLIVPKGFFGESSVYFDLTLMPHDESIKGTFHSHPSPFPYPSEGDLMFFSKFGGIHIIAAFPYDEDSVKAFDSEGREVELEVID
AGQQQPLPVPPLLESRRGQPLFMTVQRAHWSFTPGTRASVWGINGRYLGPTIRVWKGDDVKLIYSNRLTENVSMTVAGLQVPGPLMGGPARMMSPNADWAPVLPIRQNAATLWYHANTPNRTAQQVYNGLAGMWLVEDEVSKSLPIPNHYGVDDFPVIIQDKRLDNFGTPEYNEPGSGGFVGDTLLVNGVQSPYVEVSRGWVRLRLLNASNSRRYQLQMNDGRPLHVISGDQGFLPAPVSVKQLSLAPGERREILVDMSNGDEVSITCGEAASIVDRIRGFFEPSSILVSTLVLTLRPTGLLPLVTDSLPMRLLPTEIMAGSPIRSRDISLGDDPGINGQLWDVNRIDVTAQQGTWERWTVRADEPQAFHIEGVMFQIRNVNGAMPFPEDRGWKDTVWVDGQVELLVYFGQPSWAHFPFYFNSQTLEMADRGSIGQLLVNPVPRSHHHHHH
MRIGIISVGPGNIMNLYRGVKRASENFEDVSIELVESPRNDLYDLLFIPGVGHFGEGMRRLRENDLIDFVRKHVEDERYVVGVCLGMQLLFEESEEAPGVKGLSLIEGNVVKLRSRRLPHMGWNEVIFKDTFPNGYYYFVHTYRAVCEEEHVLGTTEYDGEIFPSAVRKGRILGFQFHPEKSSKIGRKLLEKVIECSLSRR
QVQLQQPGTELVRPGASVILSCKASGYTFTSYWINWVKQRPGQGLEWVGNIFPSDSYTNYNQKFKDKATLTVDKSSSTAYMQVNSPTSEDSAVYYCTRGARDTWFAYWGQGTLVTVSVAKTTPPSVFPLAPGSAAQTNSMVTLGCLVKGYFPEPVTVTWNSGSLSSGVHTFPAVLQSDLYTLSSSVTVPSSTWPSETVTCNVAHPASSTKVDKKIVPRDC
GAMRIMRPDDANVAGNVHGGTILKMIEEAGAIISTRHCNSQNGERCVAALARVERTDFLSPMCIGEVAHVSAEITYTSKHSVEVQVHVMSENILTGTKKLTNKATLWYVPLSLKNVDKVLEVPPIVYLRQEQEEEGRKRYEAQKLERMETK
MSLMTSVVPSFCHQDRRSNQRMKGLSPLAMAQVVTLGVLEPRAQGAVRWRRCWPERSTVGAIEAQRHWRPYLELSWAEKQQRDERQSQRASRVREEMFAKGQPLAPYNTTQFLMNDRDLEEPNLDVLHGPSHSGSGGENEAGDSDGQGRAHGEFQQRDFSEAYERYHTESLQGRSKQELVRDYLDLERRLSQAEQETRRLRQLQGCSSRQPCQQVEELAAEVERLRTENQRLRQENEMWNREGGYCDQEKPASEGTPWPKVEAPFQTHTGQLGHREAGDR
MSLAEGGFVDDAKASFNLRNFYINRNFVDPANPQGKAEEWTQSFILDARSGFTQGTIGFGVDMLGLYSLKLDGGKGTAGTHLLPVHDDGRPADDFGRLGVALKARLSQTELKVGEWMPVLPILRSDDGRSLPQTFRGGQLTSRELDGLTLYAGQFRGNSPRNDASMEDMFMQGRTGITSDRFNFAGGEYTFNDKRTMLGLWNAQLKDIYRQQYVNLVHSQPLGEWTLGANLGYFLGKEDGSARAGDLDNRTASAMLSARYKGHTFYIGLQKVSGDDAWMRVNGTSGGTLANDSYNASFDNAKERSWQLRHDFNFVTVGLPGLTLMNRYIKGDNVHTSAVDDGKEWARETELAYVVQSGVFKDLSVKWRNSTMRRDFSSNAFDENRVIVSYPLNLLEGHHHHHH
